Measurements taken from patent EP3984547A1 (Universitat Pompeu Fabra, dated 2022).
Where no end group is shown, it is not given here.

T1: TWEAK (Peprotech EC, Ltd, U.K.) (UniProt O43508 94-249, limits assumed)
T1 sequence (looked up): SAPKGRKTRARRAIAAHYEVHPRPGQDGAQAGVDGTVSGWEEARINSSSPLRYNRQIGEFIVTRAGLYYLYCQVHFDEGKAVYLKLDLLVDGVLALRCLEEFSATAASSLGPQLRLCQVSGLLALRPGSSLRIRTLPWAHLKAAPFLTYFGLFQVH

T2: Histidine-tagged human TWEAK (His6-TWEAK) protein (R&D Systems) (human, UniProt O43508 93-249, limits assumed)
T2 construct: Bought protein, captured through the His6 tag on an NTA chip and then coupled covalently by amine coupling; also called human His6-TWEAK protein; histidine-tagged TWEAK; not shown: His6 tag
T2 sequence (looked up): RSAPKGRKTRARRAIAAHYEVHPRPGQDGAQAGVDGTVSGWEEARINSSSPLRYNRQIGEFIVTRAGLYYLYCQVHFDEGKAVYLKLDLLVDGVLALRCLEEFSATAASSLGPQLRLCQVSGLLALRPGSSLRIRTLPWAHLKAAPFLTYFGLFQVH


Tests used:
[1] = target: T1, TWEAK (Peprotech EC, Ltd, U.K.); experiment: cell-based or functional assay
[2] = target: T2, Histidine-tagged human TWEAK …; experiment: SPR (Biacore 3000), His6-TWEAK immobilized on NTA chip, peptide as analyte, 1:1 Langmuir fit

Row | BIRC2 normalized level of expression (Zscore vs NARS2), RT-PCR, cells with peptide at 450 µM [1] [Zscore] | HSP90B1 normalized level of expression (Zscore vs NARS2), RT-PCR, cells with peptide at 450 µM [1] [Zscore] | IL6 normalized level of expression (Zscore vs NARS2), RT-PCR, cells with peptide at 450 µM [1] [Zscore] | JUN normalized level of expression (Zscore vs NARS2), RT-PCR, cells with peptide at 450 µM [1] [Zscore] | MAP4K4 normalized level of expression (Zscore vs NARS2), RT-PCR, cells with peptide at 450 µM [1] [Zscore] | MAPK14 normalized level of expression (Zscore vs NARS2), RT-PCR, cells with peptide at 450 µM [1] [Zscore] | NFkB2 normalized level of expression (Zscore vs NARS2), RT-PCR, cells with peptide at 450 µM [1] [Zscore] | TNFRSF12A normalized level of expression (Zscore vs NARS2), RT-PCR, cells with peptide at 450 µM [1] [Zscore] | TRAF2 normalized level of expression (Zscore vs NARS2), RT-PCR, cells with peptide at 450 µM [1] [Zscore] | Kd [2] [µM] | Binder
1 | -0.115 | -0.468 | -0.972 | -0.206 | -1.36 | -0.585 | -1.15 | -1.08 | -0.577 |  | SYTDVQDS-NH2 [Peptide 3: SYTDVQDS (SEQ ID NO: 3)]
2 | -0.61 | -0.921 | -0.045 | -0.509 | -1.56 | -1.11 | -1.32 | -1.11 | -0.439 |  | DNGGGNTDIYSE-NH2 [Peptide 4: DNGGGNTDIYSE (SEQ ID NO: 4)]
3 | -0.747 | -1.1 | 0.198 | -0.509 | -1.7 | -1.11 | -1.51 | -1.05 | -0.548 |  | SWYDHMAGDSSY-NH2 [Peptide 1: SWYDHMAGDSSY (SEQ ID NO: 2)]
4 | -0.996 | -1.31 | -0.535 | -0.488 | -1.13 | -1.01 | -1.21 | -1.11 | -0.409 | 170 | TTDGSTGDDLQA-NH2 [Peptide 2: TTDGSTGDDLQA (SEQ ID NO: 1)]
